First the molecules themselves.
T1: FcγRIIb (human, UniProt P31994 43-217)
T1 construct: extracellular domain; also called FcgRIIb; 2b
T1 sequence (looked up): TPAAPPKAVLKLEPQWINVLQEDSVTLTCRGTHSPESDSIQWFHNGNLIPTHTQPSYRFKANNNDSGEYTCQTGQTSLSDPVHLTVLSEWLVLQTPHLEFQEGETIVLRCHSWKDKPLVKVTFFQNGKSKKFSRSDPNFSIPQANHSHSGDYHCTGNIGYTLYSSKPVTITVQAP

T2: FcγRIIb (human, UniProt P31994 43-217)
T2 construct: extracellular domain; Soluble His-tagged extracellular domain expressed in FreeStyle293 cells; analyte in Biacore; also called FcgRIIb; 2b; not shown: His tag attached to the C terminus
T2 sequence (looked up): T1 sequence (looked up)

T3: FcγRIIa R (human, UniProt P12318 34-217)
T3 construct: extracellular domain; Soluble His-tagged extracellular domain expressed in FreeStyle293 cells; analyte in Biacore; also called FcgRIIa R; FcgRIIaR; not shown: His tag attached to the C terminus
T3 sequence (looked up): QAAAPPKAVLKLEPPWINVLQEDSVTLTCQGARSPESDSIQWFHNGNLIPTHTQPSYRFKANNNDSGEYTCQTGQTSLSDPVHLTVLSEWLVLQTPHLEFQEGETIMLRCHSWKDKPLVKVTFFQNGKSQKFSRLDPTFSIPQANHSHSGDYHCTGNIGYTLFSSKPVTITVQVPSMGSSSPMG

B1: GpH7-A5/GpH7-B3 variant S267_03V/GpL16-k0 (antibody, human IgG1, kappa)
heavy 1: not shown
heavy 2: not shown
light: DIVMTQSPLSLPVTPGEPASISCQASESLVHSNRNTYLHWYLQKPGQSPQLLIYKVSNRFSGVPDRFSGSGSGTDFTLKISRVEAEDVGVYYCSQNTHVPPTFGQGTKVEIERTVAAPSVFIFPPSDEQLKSGTASVVCLLNNFYPREAKVQWKVDNALQSGNSQESVTEQDSKDSTYSLSSTLTLSKADYEKHKVYACEVTHQGLSSPVTKSFNRGEC
notes: mutation in the GpH7-B3 chain only; also called He Ab
B2: GpH7-A5/GpH7-B3 variant D265_18N/GpL16-k0 (antibody, human IgG1, kappa)
heavy 1: not shown
heavy 2: not shown
light: B1 light
notes: as for B1
B3: GpH7-A5/GpH7-B3 variant D265_04F/GpL16-k0 (antibody, human IgG1, kappa)
heavy 1: not shown
heavy 2: not shown
light: B1 light
notes: as for B1
B4: GpH7-A5/GpH7-B3 variant S267_02A/GpL16-k0 (antibody, human IgG1, kappa)
heavy 1: not shown
heavy 2: not shown
light: B1 light
notes: as for B1
B5: GpH7-A5/GpH7-B3 variant D265_14T/GpL16-k0 (antibody, human IgG1, kappa)
heavy 1: not shown
heavy 2: not shown
light: B1 light
notes: as for B1
B6: GpH7-A5/GpH7-B3 variant V266_10E/GpL16-k0 (antibody, human IgG1, kappa)
heavy 1: not shown
heavy 2: not shown
light: B1 light
notes: as for B1
B7: GpH7-A5/GpH7-B3 variant D265_16H/GpL16-k0 (antibody, human IgG1, kappa)
heavy 1: not shown
heavy 2: not shown
light: B1 light
notes: as for B1
B8: GpH7-A5/GpH7-B3 variant V266_07I/GpL16-k0 (antibody, human IgG1, kappa)
heavy 1: not shown
heavy 2: not shown
light: B1 light
notes: as for B1
B9: GpH7-A5/GpH7-B3 variant S267_04F/GpL16-k0 (antibody, human IgG1, kappa)
heavy 1: not shown
heavy 2: not shown
light: B1 light
notes: as for B1
B10: GpH7-A5/GpH7-B3 variant D265_06M/GpL16-k0 (antibody, human IgG1, kappa)
heavy 1: not shown
heavy 2: not shown
light: B1 light
notes: as for B1
B11: GpH7-A5/GpH7-B3 variant V266_08L/GpL16-k0 (antibody, human IgG1, kappa)
heavy 1: not shown
heavy 2: not shown
light: B1 light
notes: as for B1
B12: GpH7-A5/GpH7-B3 variant V266_02A/GpL16-k0 (antibody, human IgG1, kappa)
heavy 1: not shown
heavy 2: not shown
light: B1 light
notes: as for B1
B13: GpH7-A5/GpH7-B3 variant S267_05P/GpL16-k0 (antibody, human IgG1, kappa)
heavy 1: not shown
heavy 2: not shown
light: B1 light
notes: as for B1
B14: GpH7-A5/GpH7-B3 variant V266_09D/GpL16-k0 (antibody, human IgG1, kappa)
heavy 1: not shown
heavy 2: not shown
light: B1 light
notes: as for B1
B15: GpH7-A5/GpH7-B3 variant Y300_12R/GpL16-k0 (antibody, human IgG1, kappa)
heavy 1: not shown
heavy 2: not shown
light: B1 light
notes: Heterodimerized anti-glypican-3 IgG1 antibody; alteration only in the GpH7-B3 H chain; position in EU numbering; also called He Ab
B16: GpH7-A5/GpH7-B3 variant Y300_18N/GpL16-k0 (antibody, human IgG1, kappa)
heavy 1: not shown
heavy 2: not shown
light: B1 light
notes: as for B15

The target in one test is T4, FcγRIIIa (human, UniProt P08637 17-208).
T4 construct: extracellular domain; also called FcgRIIIa; 3a
T4 sequence (P08637 17-208): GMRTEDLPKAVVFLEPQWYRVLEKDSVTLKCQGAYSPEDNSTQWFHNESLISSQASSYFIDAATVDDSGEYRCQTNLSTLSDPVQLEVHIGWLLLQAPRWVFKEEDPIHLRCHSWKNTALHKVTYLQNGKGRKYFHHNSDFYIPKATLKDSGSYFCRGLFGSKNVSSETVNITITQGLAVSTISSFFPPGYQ
The experiment in a line: SPR (Biacore), relative binding.
As for B1, the He/Con_3a is 30.8 % of GpH7-A5/GpH7-B3/GpL16-k0.
Regarding B2, the He/Con_3a is 4.6 % of GpH7-A5/GpH7-B3/GpL16-k0.
Turning to B3, the He/Con_3a was 0 % of GpH7-A5/GpH7-B3/GpL16-k0.
The same measure, in the same setting: the value for B4 was 150 % of GpH7-A5/GpH7-B3/GpL16-k0; that for B5 was 4.3 % of GpH7-A5/GpH7-B3/GpL16-k0; that for B6 was 4.1 % of GpH7-A5/GpH7-B3/GpL16-k0.
B7: the He/Con_3a was 13.6 % of GpH7-A5/GpH7-B3/GpL16-k0.
Same read-out and setting: the value for B8 was 114 % of GpH7-A5/GpH7-B3/GpL16-k0.
Still for that read-out and setting: the value for B9 was 11 % of GpH7-A5/GpH7-B3/GpL16-k0.
Same read-out and setting: the value for B10 was 2.6 % of GpH7-A5/GpH7-B3/GpL16-k0.
Regarding B11, the He/Con_3a is 118 % of GpH7-A5/GpH7-B3/GpL16-k0.
Consider B12, for which the He/Con_3a was 57.4 % of GpH7-A5/GpH7-B3/GpL16-k0.
Consider B13, for which the He/Con_3a was 15.7 % of GpH7-A5/GpH7-B3/GpL16-k0.
Turning to B14, the He/Con_3a was 2.7 % of GpH7-A5/GpH7-B3/GpL16-k0.

The target of a further test is T1, FcγRIIb. As to the kind of experiment: SPR (Biacore), relative binding.
On to B1, for which the He/Con_2b is 192 % of GpH7-A5/GpH7-B3/GpL16-k0.
With B2, the He/Con_2b is 6.1 % of GpH7-A5/GpH7-B3/GpL16-k0.
B3: the He/Con_2b was 3.2 % of GpH7-A5/GpH7-B3/GpL16-k0.
In the case of B4, the He/Con_2b is 243 % of GpH7-A5/GpH7-B3/GpL16-k0.
For the molecule B5, the He/Con_2b is 16 % of GpH7-A5/GpH7-B3/GpL16-k0.
In the case of B6, the He/Con_2b is 15.2 % of GpH7-A5/GpH7-B3/GpL16-k0.
Still for that read-out and setting: the value for B7 was 38.3 % of GpH7-A5/GpH7-B3/GpL16-k0; that for B8 was 152 % of GpH7-A5/GpH7-B3/GpL16-k0; that for B9 was 48 % of GpH7-A5/GpH7-B3/GpL16-k0.
Take B10: the He/Con_2b is 10 % of GpH7-A5/GpH7-B3/GpL16-k0.
For the molecule B11, the He/Con_2b was 236 % of GpH7-A5/GpH7-B3/GpL16-k0.
With B12, the He/Con_2b was 81 % of GpH7-A5/GpH7-B3/GpL16-k0.
The same measure, in the same setting: the value for B13 was 31.5 % of GpH7-A5/GpH7-B3/GpL16-k0.
Consider B14, for which the He/Con_2b was 10.1 % of GpH7-A5/GpH7-B3/GpL16-k0.

The next test has as its target T4, FcγRIIIa. The experiment in a line: SPR; He/Con_3a divided by He/Con_2b (FcγRIIIa against FcγRIIb). On the technique in general: In SPR one partner is held on a chip, and binding of the other changes the refractive index at the surface.
In the case of B1, the “He_3a/2b (IIIa/IIb)” value is 0.16 ratio.
In the case of B2, the “He_3a/2b (IIIa/IIb)” value was 0.74 ratio.
Still for that read-out and setting: the value for B3 was 0 ratio.
As to B4, the “He_3a/2b (IIIa/IIb)” value was 0.62 ratio.
Same read-out and setting: the value for B5 was 0.27 ratio; that for B6 was 0.27 ratio; that for B7 was 0.35 ratio.
B8: the “He_3a/2b (IIIa/IIb)” value was 0.75 ratio.
As for B9, the “He_3a/2b (IIIa/IIb)” value came to 0.23 ratio.
Regarding B10, the “He_3a/2b (IIIa/IIb)” value stood at 0.26 ratio.
As to B11, the “He_3a/2b (IIIa/IIb)” value came out at 0.5 ratio.
As to B12, the “He_3a/2b (IIIa/IIb)” value is 0.71 ratio.
With B13, the “He_3a/2b (IIIa/IIb)” value came to 0.5 ratio.
With B14, the “He_3a/2b (IIIa/IIb)” value is 0.27 ratio.

The target of a further test is T2, FcγRIIb. The experiment in a line: SPR (Biacore), antibody captured via antigen peptide, FcγR as analyte.
In the case of B15, the “He/Con_2b (IIb binding relative to GpH7-A5/GpH7-B3/GpL16-k0)” value was 41.2 % of control (control = 100).
In the case of B16, the “He/Con_2b (IIb binding relative to GpH7-A5/GpH7-B3/GpL16-k0)” value was 82.7 % of control (control = 100).

In a further test the target is T3, FcγRIIa R. Described as above.
Take B15: the “He/Con_2aR (IIaR binding relative to GpH7-A5/GpH7-B3/GpL16-k0)” value was 55.1 % of control (control = 100).
On to B16, for which the “He/Con_2aR (IIaR binding relative to GpH7-A5/GpH7-B3/GpL16-k0)” value was 100 % of control (control = 100).

Another test addresses T3, FcγRIIa R. As to the kind of experiment: ratio of He/Con_2aR to He/Con_2b (binding to FcγRIIb as reference); SPR.
As for B15, the “He_2aR/2b (IIaR/IIb)” value was 1.34.
Consider B16, for which the “He_2aR/2b (IIaR/IIb)” value amounted to 1.21.
